Test results from article PMC12567051, “Performing Dual Glucose Clamp Experiments in Sedated Farm Swine: A Practical Method” (Methods and Protocols, 2025).

Experiment: Insulin pharmacokinetics during hyperinsulinemic-euglycemic clamp
Type: in vivo
Conditions: 24 clamps in 2 swine
Excerpt: One CSII was initiated with commercial insulin lispro (U-100, Eli Lilly and Company, Indianapolis, IN, USA) at 0.4 units/hour, and one with preservative-free saline or diluent via 2 commercial insulin pumps. This strategy was used to mimic real-world conditions and avoid potential occlusion of the catheters, while comparing occlusion rates between insulin and saline infusions. Postoperatively, the swine were monitored twice daily for signs of pain/discomfort, hypoglycemia, and infection. Glucose concentrations (trends) were also monitored using two real-time continuous glucose sensors (CGM G4 Dexcom Inc, San Diego, CA, USA) placed laterally on the lower abdomen.
Once the fasting animal was comfortably positioned in the sling apparatus, endogenous insulin secretion was suppressed using an octreotide infusion. An initial octreotide bolus dose (7.2 µg/kg) was administered 60 min prior to starting the clamp, followed by a maintenance dose of (3.6 µg/kg/h). […]
After beginning the clamp study on the first swine, a second team ensured that duplicate laboratory and anesthesia equipment were set up and calibrated in the other half of the procedure room. […] Blood glucose measurements and insulin samples were obtained at 5 and 10 min intervals for 240 min, while other data, such as vital signs and gas concentrations, were recorded continuously.

insulin lispro
time for insulin concentrations to return to near baseline (after bolus insulin 0.15 IU/kg via CSII catheter, sedated farm swine): ≤ 90 min | insulin Cmax (sedated female farm swine, bolus insulin 0.15 IU/kg via CSII catheter (subcutaneous, abdomen), endogenous insulin suppressed with octreotide, glucose clamped at 85 mg/dL, mean): 0.1085 nM
